From paper PMC9461283 (Biosafety and Health, 2022)

What was measured:
[1] = target: SARS-CoV-2 S receptor-binding domain (RBD) (SARS-CoV-2 (isolate Wuhan-Hu-1), UniProt P0DTC2); assay: SPR
[2] = target: SARS-CoV-2 S receptor-binding domain (RBD) (SARS-CoV-2 (isolate Wuhan-Hu-1), UniProt P0DTC2); assay: SPR; remark: listed apart in the source

B1: human ACE2 ectodomain (ectoACE2), N-terminal 367 aa (domain or fragment)
chain: QSTIEEQAKTFLDKFNHEAEDLFYQSSLASWNYNTNITEENVQNMNNAGDKWSAFLKEQSTLAQMYPLQEIQNLTVKLQLQALQQNGSSVLSEDKSKRLNTILNTMSTIYSTGKVCNPDNPQECLLLEPGLNEIMANSLDYNERLWAWESWRSEVGKQLRPLYEEYVVLKNEMARANHYEDYGDYWRGDYEVNGVDGYDYSRGQLIEDVEHTFEEIKPLYEHLHAYVRAKLMNAYPSYISPIGCLPAHLLGDMWGRFWTNLYSLTVPFGQKPNIDVTDAMVDQAWDAQRIFKEAEKFFVSVGLPNMTQGFWENSMLTDPGNVQKAVCHPTAWDLGKGDFRILMCTKVTMD
Kd [1]: 61.2 nM

B2: African Green monkey (Chlorocebus sabaeus) ACE2 ectodomain (ectoACE2), N-terminal 367 aa (domain or fragment)
chain: QSTIEEQAKTFLDKFNPEAEDLFYQSSLASWNYNTNITEENVQNMNNAGEKWSAFLKEQSTLAQMYPLQAIQNLTVKLQLQALQQNGSSVLSEDKSKRLNTILNTMSTIYSTGKVCNPNNPQECLLLDPGLNEIMEKSLDYNERLWAWEGWRSEVGKQLRPLYEEYVVLKNEMARANHYKDYGDYWRGDYEVNGVDGYDYNRDQLIEDVERTFEEIKPLYEHLHAYVRAKLMNAYPSYISPTGCLPAHLLGDMWGRFWTNLYSLTVPFGQKPNIDVTDAMVNQAWNAQRIFKEAEKFFVSVGLPNMTQGFWENSMLTDPGNVQKVVCHPTAWDLGKGDFRIIMCTKVTMD
Kd [2]: 67.6 nM
